Measured values as given in patent US20210340268A1 (GENERAL HOSPITAL, published 2021).

Key:
[1] = target: T1, epitope containing residues 56-60 of SEQ ID NO: 7 within human TNFR2 (KCSPG) (human); test: epitope mapping analysis (peptide ELISA)
T1 construct: Motif within CRD1 of TNFR2
T1 peptide: KCSPG

[2] = target: T2, recombinant human TNFR2 (human tumor necrosis factor receptor 2) (human, UniProt P20333 23-257); test: SPR (Biacore 3000), biotinylated antibody captured on streptavidin, recombinant human TNFR2 in solution
T2 sequence: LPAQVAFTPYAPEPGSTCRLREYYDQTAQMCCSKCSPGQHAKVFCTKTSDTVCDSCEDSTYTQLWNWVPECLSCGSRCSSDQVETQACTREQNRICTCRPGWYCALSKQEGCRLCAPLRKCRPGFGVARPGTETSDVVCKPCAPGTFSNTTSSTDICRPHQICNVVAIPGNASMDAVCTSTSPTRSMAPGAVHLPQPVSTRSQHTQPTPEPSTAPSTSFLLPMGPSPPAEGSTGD
Procedure: The affinities of antagonistic TNFR2 antibodies for recombinant human TNFR2 were measured using BIACORE™ Analysis Services (Precision Antibody). Briefly, the antibody was biotinylated at a 5:1 stoichiometric ratio using biotinyl-LC-LC-[…] (Thermo-Fisher) in PBS. Excess biotinylation reagent was removed by centrifugation chromatography and the biotinylated antibody was captured on 3000 RU of streptavidin surface to a level of 100 RU. […] Analysis of the kinetics of antigen binding was performed at a flow of 60 μL/min with 2 min injections. Antibodies were injected at a concentration of 1 mg/ml to the final capture of 100 RU. The instrument used was BIACORE™ 3000 with the BioCap chip (GE Healthcare). Double reference method was used for analysis. Reference channel contained the identical level of streptavidin.

binding result [1]: no binding
B1: TNFRAB1 (antibody, V domains shown)
VH: EVQLQESGGGLVKPGGSLKLSCAASGFTFSSYVMSWVRQTPEKRLEWVATISSGGSYTYYPDSVKGRFTISRDNAKNTLYLQMSSLRSEDTAMYYCARQRVDGYSSYWYFDVWGAGTAVTVSS
VL: DIVLTQSPAIMSASPGEKVTITCSASSSVYYMYWFQQKPGTSPKLWIYSTSNLASGVPVRFSGSGSGTSYSLTISRMEAEDAATYYCQQRRNYPYTFGGGTKLEIKR
notes: Murine monoclonal antibody with two heavy and two light chains; also called antagonistic TNFR2 antibody TNFRAB1
Kd [2]: ~44.4 pM
koff [2]: 0.000221 s⁻¹
kon [2]: 4.98e+06 M⁻¹ s⁻¹
